Our source for the Km and Vmax values is publication PMC9405506, “Thermostable and O2-Insensitive Pyruvate Decarboxylases from Thermoacidophilic Archaea Catalyzing the Production of Acetaldehyde” (Biology, 2022).

Substrate in data set [1]: CC(=O)C(=O)O
Description: PDC activity: acetaldehyde by DNPH derivatization and HPLC, Michaelis-Menten fit. It counts as biochemical, Saccharolobus solfataricus. The conditions noted are these: PDC (non-oxidative decarboxylation) reaction, 0.1 mM CoA, 100 mM sodium phosphate pH 7.9, 80 °C. The source says: PDC activity: acetaldehyde by DNPH derivatization and HPLC, Michaelis-Menten fit on SsPOR/PDC

Substrate in data set [2]: CC(=O)C(=O)O
Description: purified protein. It counts as biochemical, Saccharolobus solfataricus. The conditions noted are these: POR (oxidative decarboxylation) reaction, 0.1 mM CoA, 1 mM benzyl viologen, 50 µM sodium dithionite, anaerobic, pH 8.0, 80 °C.

B1: SsPOR/PDC (Saccharolobus solfataricus) (protein)
chain 1: MRISWMIGGAQGSGVDTSANIFGNAVAASGYYIYGNREYYSNIKGRHSYFNLTISDKPPRSIAQQIEILTSFDAETIFQHFNEVKDVLIYSTEVENTKAEQVQSMEPEITEHVVKFLKEKGYGTTVKDVINYLKKEKGVKVIPIDYMEILKKVADQAKVQLSVADRARNTIAIAASYKLLGLKEQYLINSITRTFRQEVFAKINTIAAQLAMQQIQPMYNLPELPNNEEKINLDGNTAAAIGKIYGGLRFQSYYPITPASDESVFIEAHQTVFTVDPKTGEKRKSTIVVVQAEDELAAINMASGAALTGVRAATATSGPGFSLMVEGMGWAGMNEVPVVITYYIRGGPSTGQPTRTSQADLMFALNAGHGEFPRIVIASGDHVEAFHDGTWALNLAQKYQTPVIHLVDKALANSYSIIPKKTLGMENIRIEKGKIVINTNTPELKRFEITEDGISPFAPLGTARVHYTGDEHDEYGFIAEASENREKMYEKRIKKLMTADKEIPEESRVNVYGNTDSKVAIITWGSPKGAILDAMEELENEGIKPMLIQIRMFSPFPKNLMRKLLNGKEFIIDVESNYFGQAGEVLKLNTGIEPTHYILKWNGRPMMRDEVKEGIKAVVQKGERRVVLHGGA
chain 2: MAGLKVEWNDWCPGCGNFGILSAEQQAIQELGLDPKKVVLVSGIGCSGKIPHFIRLPASGVHTLHGRALTFAIGIKLANPSLEVIVNGGDGDQLGIGVGHFVSAGRRNVDLTVIVHNNGVYGLTKGQASPTLKLGVKTKSLPKPNINSDINPIALAISSGYTFVARGYAYDVKHLKEIIKKAIKHKGLAMIDVLQPCPTYNDIHTKEYYDKRVYKLDEDPSWDPIVKKPEEMDDKMSKAILKSMEWGDRTPIGIFYQNELVSTYEQRIAERSPSYLDNPPAHDVIEFEGKPTTDVEDILKERRVT
notes: native, purified from cells by DEAE-Sepharose, hydroxyapatite and phenyl-Sepharose; heterodimer (alpha-beta), subunits 37 and about 65 kDa
The term Km denotes the substrate concentration at which the rate is half of its maximum. The term Vmax denotes the top rate of the reaction or transport when substrate is in excess. As to B1, in data set [1], the Km was 1100 ± 200 µM and the Vmax came to 0.12 µmol/min/mg. Further, in data set [2], the Km came to 500 ± 100 µM and the Vmax was determined as 6.3 µmol/min/mg.
